Key:
Assay in all cases: IEDB peptide-MHC binding, purified MHC/direct/fluorescence; filed as Kd, often an IC50 or EC50 that approximates it; ≥ and ≤ were set here for values at or beyond the usual limits of such assays
HLA-A*29:02 = settings: source organism: Salmonella enterica subsp. enterica serovar Typhimurium str. LT2
HLA-A*26:02 = settings: source organism: Salmonella enterica subsp. enterica serovar Typhimurium str. LT2
HLA-B*18:01 = settings: source organism: Salmonella enterica subsp. enterica serovar Typhimurium str. LT2
HLA-A*02:50 = settings: source organism: Salmonella enterica subsp. enterica serovar Typhimurium str. LT2
HLA-B*27:05 = settings: source organism: Salmonella enterica
HLA-A*03:01 = settings: source organism: Salmonella enterica
HLA-A*02:10 = settings: source organism: Salmonella enterica subsp. enterica serovar Typhimurium str. LT2
HLA-B*58:01 = settings: source organism: Salmonella enterica
HLA-B*38:01 = settings: source organism: Salmonella enterica subsp. enterica serovar Typhimurium str. LT2
HLA-A*02:19 = settings: source organism: Salmonella enterica subsp. enterica serovar Typhimurium str. LT2
HLA-B*57:01 = settings: source organism: Salmonella enterica
HLA-B*51:01 = settings: source organism: Salmonella enterica subsp. enterica serovar Typhimurium str. LT2
HLA-B*46:01 = settings: source organism: Salmonella enterica
HLA-B*40:01 = settings: source organism: Salmonella enterica
HLA-B*48:01 = settings: source organism: Salmonella enterica
HLA-A*02:12 = settings: source organism: Salmonella enterica subsp. enterica serovar Typhimurium str. LT2
HLA-A*31:01 = settings: source organism: Salmonella enterica
HLA-B*39:01 = settings: source organism: Salmonella enterica subsp. enterica serovar Typhimurium str. LT2
HLA-A*24:03 = settings: source organism: Salmonella enterica subsp. enterica serovar Typhimurium str. LT2
HLA-A*01:01 = settings: source organism: Salmonella enterica
HLA-B*08:01 = settings: source organism: Salmonella enterica subsp. enterica serovar Typhimurium str. LT2
HLA-A*02:11 = settings: source organism: Salmonella enterica subsp. enterica serovar Typhimurium str. LT2
HLA-A*23:01 = settings: source organism: Salmonella enterica subsp. enterica serovar Typhimurium str. LT2
HLA-A*69:01 = settings: source organism: Salmonella enterica
HLA-A*11:01 = settings: source organism: Salmonella enterica

Measured: Kd

FPASHMATY
9 µM: HLA-B*46:01
≤ 1 nM: HLA-A*26:02
114 nM: HLA-A*29:02
7 nM: HLA-B*18:01
≥ 20 µM: all other assays above
